Experimental data as given in IntAct's records for PubMed 22745600.

B1: Homeobox protein extradenticle (Drosophila melanogaster (Fruit fly)), P40427 (parent)
chain: MEDPNRMLAHTGGMMAPQGYGLSGQDDGQNAGSENEVRKQKDIGEILQQIMSISEQSLDEAQARKHTLNCHRMKPALFSVLCEIKEKTVLSIRNTQEEEPPDPQLMRLDNMLIAEGVAGPEKGGGGAAAASAAAASQGGSLSIDGADNAIEHSDYRAKLAQIRQIYHQELEKYEQACNEFTTHVMNLLREQSRTRPITPKEIERMVQIIHKKFSSIQMQLKQSTCEAVMILRSRFLDARRKRRNFSKQASEILNEYFYSHLSNPYPSEEAKEELARKCGITVSQVSNWFGNKRIRYKKNIGKAQEEANLYAAKKAAGASPYSMAGPPSGTTTPMMSPAPPQDSMGYPMGSGGYDQQQPYDNSMGGYDPNLHQDLSP
B2: Pre-B-cell leukemia transcription factor 1 (Mus musculus), P41778 (parent)
chain: MDEQPRLMHSHAGVGMAGHPGLSQHLQDGAGGTEGEGGRKQDIGDILQQIMTITDQSLDEAQARKHALNCHRMKPALFNVLCEIKEKTVLSIRGAQEEEPTDPQLMRLDNMLLAEGVAGPEKGGGSAAAAAAAAASGGAGSDNSVEHSDYRAKLSQIRQIYHTELEKYEQACNEFTTHVMNLLREQSRTRPISPKEIERMVSIIHRKFSSIQMQLKQSTCEAVMILRSRFLDARRKRRNFNKQATEILNEYFYSHLSNPYPSEEAKEELAKKCGITVSQVSNWFGNKRIRYKKNIGKFQEEANIYAAKTAVTATNVSAHGSQANSPSTPNSAGSSSSFNMSNSGDLFMSVQSLNGDSYQGAQVGANVQSQVDTLRHVISQTGGYSDGLAASQMYSPQGISANGGWQDATTPSSVTSPTEGPGSVHSDTSN

What was measured:
[1] = variants of: B1; conditions: with lab_drome lab
[2] = variants of: B1; conditions: with abdb_drome Abd-B
[3] = variants of: B1; conditions: with ubx_drome Ubx
[4] = variants of: B1; conditions: with abda_drome abd-A
[5] = variants of: B2; conditions: with hxb8_mouse Hoxb8, P09632
Sequence of hxb8_mouse Hoxb8, P09632 (P09632 whole entry): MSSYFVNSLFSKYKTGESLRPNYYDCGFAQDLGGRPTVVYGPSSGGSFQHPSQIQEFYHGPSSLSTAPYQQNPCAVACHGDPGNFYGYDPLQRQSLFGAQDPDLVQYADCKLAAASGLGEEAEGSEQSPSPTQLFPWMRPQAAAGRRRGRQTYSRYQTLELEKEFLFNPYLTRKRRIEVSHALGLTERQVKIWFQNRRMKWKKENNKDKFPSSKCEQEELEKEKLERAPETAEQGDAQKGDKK

Row | effect of a mutation on the interaction [1] | effect of a mutation on the interaction [2] | effect of a mutation on the interaction [3] | effect of a mutation on the interaction [4] | effect of a mutation on the interaction [5] | Variant
1 | decreasing interaction strength | disrupting interaction strength | decreasing interaction strength | decreasing interaction strength | – | MEDPNRMLAHTGGMMAPQGYGLSGQDDGQNAGSENEVRKQKDIGEILQQIMSISEQSLDEAQARKHTLNCHRMKPALFSVLCEIKEKTVLSIRNTQEEEPPDPQLMRLDNMLIAEGVAGPEKGGGGAAAASAAAASQGGSLSIDGADNAIEHSDYRAKLAQIRQIYHQELEKYEQACNEFTTHVMNLLREQSRTRPITPKEIERMVQIIHKKFSSIQMQLKQSTCEAVMILRSRFLDARRKRRNFSKQASEILNEYFYSHLSNPYPSEEAKEELARKCGITVSQVSAWFGNKRIRYKKNIGKAQEEANLYAAKKAAGASPYSMAGPPSGTTTPMMSPAPPQDSMGYPMGSGGYDQQQPYDNSMGGYDPNLHQDLSP [N287A]
2 | – | – | – | – | disrupting interaction strength | MDEQPRLMHSHAGVGMAGHPGLSQHLQDGAGGTEGEGGRKQDIGDILQQIMTITDQSLDEAQARKHALNCHRMKPALFNVLCEIKEKTVLSIRGAQEEEPTDPQLMRLDNMLLAEGVAGPEKGGGSAAAAAAAAASGGAGSDNSVEHSDYRAKLSQIRQIYHTELEKYEQACNEFTTHVMNLLREQSRTRPISPKEIERMVSIIHRKFSSIQMQLKQSTCEAVMILRSRFLDARRKRRNFNKQATEILNEYFYSHLSNPYPSEEAKEELAKKCGITVSQVSAWFGNKRIRYKKNIGKFQEEANIYAAKTAVTATNVSAHGSQANSPSTPNSAGSSSSFNMSNSGDLFMSVQSLNGDSYQGAQVGANVQSQVDTLRHVISQTGGYSDGLAASQMYSPQGISANGGWQDATTPSSVTSPTEGPGSVHSDTSN [N282A]
